{
  "source": "patent US20010029022A1",
  "binders": {"B1": {"name": "GST-HPV6b E7 (protein)", "chain": "MHGRHVTLKDIVLDLQPPDPVGLHCYEQLVDSSEDEVDEVDGQDSQPLKQHFQIVTCCCGCDSNVRLVVQCTETDIREVQQLLLGTLNIVCPICAPKT"}},
  "target": "CDK2 kinase complex (cyclin not given) (UniProt P24941)",
  "assay": "cell-based or functional assay",
  "data": [
    {"binder": "B1", "values": [
      {"measurement": "CDK2 histone kinase activity, fold activation", "result": 15.8, "unit": "fold"}
    ]}
  ]
}
